Measurements taken from the NTF2 design screens of Basanta et al. (2020).

Experiment: protease stability score; higher = more stable; yeast display proteolysis, trypsin and chymotrypsin;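 also: relative to predicted unfolded state with 0 unfolded-like and 1 meaning tenfold more protease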

| Sequence | protease stability score |
| --- | --- |
| SEEEHIVKEAVRLWYEAVHTGDPHTLNEFLDPHMRIEIGDKEKHGRHELKKLTEHIRIERLEFTLTHMKIVGNKAHVYGHLRFEGDWDGQRIHTEVETRLHIIKYDGKWMTEEVHIR | 1.97 |
| DELHEERERASEVARRWVLTGNEEMLVQLADPEVRLHFNGVDFVGRETIHETLRRIHELWGVDRIEVRLKTVHIYDGVVDVHVDLHVGDKEIRDDIHLKKFNGRWEMTTRHVH | 0.348 |
| SEELELAKWLLEEWIRAVETGDERTLKELADPDVKMHIGDKNHIGWEEYVRFLRHLRITVRRMEVKHMHVFDGRIHIHGHFDIEINIGDKHLRRHHDVEIILVVVDGKLTSIEIRNH | 1.5 |
| DEHTDMTRRLAELFRHLIETGNWKELTKLADPNMRLEVGDKEMHGREKLAELWRRIKNVRISIRRVEVQGEKVHLDLELDVDGQRQKFSEHIDIVDGVMRDVNVQWE | 2.12 |
| DDREKYLTKLMELFIEHWRTGDEEAFLEYFDPHVRIEHIFNGQETRRHGRELFSILLTHEWLFFKNVRIHWKRSEVQGEKTVIHMELHVGDKSLKVRIHLDVVDGRVRSVNIEIE | 0.548 |
| HEYEEWSEIAMRLWILAERTGDERHIAHLLDPHVRYVFNGVEVIGMELITELVKRRWEQWRVHVEIEDRKFQGNFSKIEGHLRLHVGDKTEERRVEYRMDIVDGRIREISVIIE | 1.37 |
| DEEEEWATEAWKLHLHHHRTGDERMIHELLDPNMRLDFDGVELHGRKLVKEFIERTLRRFDVIDEYDHSDVRIQGDKVDLIQVVRGEIDGRRTHVNQRLIMIKIDGRWVVKHVRLQ | 1.23 |
| REEEKMMRHIFRLDVILELTGDEEKWKHYADPNVRVIFIFENVHIEHHGRDAWVRLLHHMRIDRIIIHRLRVFENHNQADTFVKGEINGRELDMETHFYVLVINGRRKEVELEVR | 1.46 |
| TEDEEFAFEIIRLFHEALLTGDEETLHHLVDPNARMQIGEFTTHGRSMVKFFNKRFDHWEMRVEFRRIHYIGDKVFVDTRIRILIEYNGRFIETSVEQRIVTRKIDGKWQITRLEIV | 1.05 |
| SEKDELLDEILEKLRHDVETGNERLIRKNLDPHVKTDFNGRELHGMDLALRVWREHHEKVKNIRLEIKSVESVDGVVIIHMHVEIDGRHLDVILRWFVVNGRVKSVEIEIK | 0.232 |
| DEDEKTAEETLNEFIRSLLTGDEDNLKHLLDPNTRFHINGQDIHGWEVYYEMFRQWRVTHVRLEVKDFRIFNGRLDADGHLRMHGTINGKNRDTSSILHMHSVKVNGRWVLTEVRVE | 1.78 |
| DEETKKLRKFMEQFIEALRTGDEEILEHLIDPNVRNIVGDKQEHGRELLLTWLVKYKGVRWMIDHITIINGVIEIHGTLQVGDKEISIHIHVLVINGKVKSVEIREN | 1.47 |
| SHLEEHLKENLKREEEARRTGDFRFFSRLADPHVKIIINGVELHGMETYNEHWRQIWHDSHHMEITSIDVQGDKIEADIRIIEHGRINGVRESIVLTVRLRFEKINGRWVLTMIIIE | 0.077 |
| DEDREIAERFLRRWSHDTLTGDEDSLRDMVDPNVRLEYGDFTFHGREEWLKFFREIRVEDSHVHHMHVFNGQARIKLDFRVRFNGKELRTKVTLSVDKVDGRWIIRSIHFE | 1.64 |
| DELHERLEEVLEVRIEAILTGDWHWLSRMLDPDTRLEVGDKTYHGMEKIYEKLHTETRRMGWRMEVEIKDYRFQGDYLNVDGTIHIKIGDKEIQKRSELKIVVVDGRITEFKIEYR | 1.18 |
| DEEEQRIEEMLKKWLEAMETGDEDLEKQLADPNVRFHIGDKEHVGREELSQVKKRLGIKVMILHDERVDRQGDWIVMHLDIILEFDGRRFRVRFNLFVEKIDGRWLVKKVEIHLR | 0.936 |
| DEEDKEAHEMVNDALQDFLTGDEDSLRNLVDPNARFEAENHHLIGMETVEWHIREFKNVTIEVKRVDVEVQGDKAILRMNIDIRVNGKTIDEHWEVHVRKFNGQWIITIVKVEFR | 2.17 |
| SEDEEKATEFFRLLVDNWLTGDEENVERLLDPRVRVLVGDKMIHGRHLSARLESEFLKRIPNLRIRFHLHDVRTYGDKAHLDIIIDIHFNGVDIHIESELVVVKIDGRWLFKEERRK | 0.276 |
| DDEERDVLRIMRIVLKLWKTGNEEKYEHLLDPDVRMEVDGRNLHGRETVSHWLHRLREEIRIDDYKIETVRAQGNKSILHVRTDGIINGQEVRLTEEITIIVINGRIQTFSIHRH | 0.628 |
| DELREESEHARQLYWRSIFTGDEDHFEKLLDPNARVYVNGKNLHGREDVLRVFHELRFRRLHWHDFDDQGDKLFFITKTVVDFNGVKMEQRTELYLRKVDGRWHVEEIRFE | 0.997 |
| HESEELAKHFSKIMDDLIRTGDEEHFDRLLDPNVKLDVNGRTIHGRERVSEIIHEKNKELGIDQIHVRKQDEHIIGDKLILHIEIIYGDKRIELIIITRKINGKWRIESVELREH | 0.876 |
| SEREEDTEHHMRMLIKDHETGDWRSWKKLVDPHVKLEINGREHHGRELALHMFRRVDHIESTVRDRTIQGDKVHHDGHLIINVDGVNIIVRSEIILIKVDGQWRIEILIFR | 0.957 |
| SEEEEQAKEAVRHFIHKWQTGDEDRLKELLDPHTKIDIGDKHIHGREEATKLIRNELHRIKNIRVELRDIEVRVYDGVIELHIRGLEKYNGQEVHVTIILIFRKINGQWIIQSEHFHID | 1.31 |
| TELDELALKLLEQLIELEATGDWKTLLKLFDPNTRVDIEVGDKKIRLHGREDVIEWVKTVYEHLRFEIRIHSSDAIDGRVHVSTKLIIRIDGRTIEVETHLRVIMIDGKIHEVNTHVH | 1.43 |
| DELEEYLKRLAKEILELMQTGDEDRWMKLADPNVRIDVNGVELHGRETWVERMEDILREIRSEYRIRHVHSQGNWARVDGELDIKVNGRIIRHKTEFIVVTVNGRIREEKFHIR | 0.335 |

| Sequence | protease stability score |
| --- | --- |
| DEEIEEARHVFEEVIHNIQTGDEDAYETLMDPNVRLQVGEKKFHGRREVKEWLHEIRVRRYEIRPKDSDVIGEKVIVHGRVRIDGHYNGRDIDLEVQVHRIIVKINGRWFVHEVRIG | 1.28 |
| SEEEEEMRFFMEVWIHDLRTGDFESLHKNADPRTRVEINGVELHGREHFTEWAERIKGAKFEVKDFKIQGDKVILHGKFSVNGVEHEMTVIFLKVNGRWLQESMTLK | 0.603 |
| DEEERLWEAAEYFFIHLLQTGDEEMVTKYADPHVRSDVNGVEYHGMNQFVEEWRRLVERIDHLESHHIDRVEIYNGVVTVHLRVHGEVNGKRDTFRVIIFMYKYNGQWRIHSYEFK | 1.1 |
| DEDHEIATKVLELWERLINTGDEEQMSRLADPNTKITIGEKDIVGREDIIKDMRHIRWKVKDFKIHDSSVIDGRIHLDGEMHVIFDVNGRRHERTIRMEIIVEKIDGRWVFKSIHIE | 1.3 |
| DENRELMERIARLVLHWLHTGDEHFIERLVDPHARVQQGDKEDHGMDRVVEMWNELRVHHVELRHLEVFENHATIHGEIDGEINGQRVRLDFHIHIHIVDGRMETIHVHFR | 2.1 |
| DEQEKEAKRVVEEILEILLTGDFESFLRNADPNVRIIIGDKDYWGREHTKRLLTDWRREMRVKHIDVRDIEVQGNKVKLHLESDLEINGRRTRTEMEIIVVTFNGRFESLEIRTV | 1.75 |
| EEDLEHILELSEYFIRAWSTGDWDTIHKYADPHVRSDINGVESHGMEEMIRVYEEIRVTIEHVHYDHVTVQGEKLIVDGRMDYRVDINGKKKEHRTRVEIHVDVVNGRIKSFVINYR | 1.23 |
| DDETEHLEKSVRDLVTSIKTGNWEEFYKMFDPNMRVDINGQQYHGRENAVEMVRQLWERLGAKHVHLTEIRYYGDKLELIMHVHFDGRDKEEEYIAVKIDGRWLLTEVRFK | 2.08 |
| DELIEEARRFHEKLVDNLETGNEEEFEREIDPNTRVDFNGVEIHGWKHFSKMFKEIRFHQVRLHDIRAVGNKVDSDEDVDGNYNGVRVRHRIHVVARKVNGRWLMESVIFR | 1.24 |
| HDLEKLVKFWYELWLRLLLTGDEEIFSHLADPNARLEVDGVEFVGREQVLKDLKRRMEEMRLTSMIITHVDWQGEKNRTEGITHGRINGVDITSETHLVLVIVNGRIRSIRIEIR | 1.54 |
| SELEEAVRRWLELFFKLFWTGNEEILTDLFDPNVRLEVGDKVFIGREEVSRHLREFRERVKNLRMHVHDVKLINGVVHMDIEIDINGVRTKAHTDWIVIDGRHHSQIIKIN | 0.525 |
| SEDEENIKRHLEIWFTALKTGDEDTSRRMIDPNARFQVGDKHEHGMDSLVRELLREWKERGIELKSIRTTEIHIQGDKIFLNSRRDVLVNGVRIILETEIRFLKVDGRWLITEVSER | 1.22 |
| SEEEKKLNHWLELWLRSVVTGDEEHLERLADPHVRNHVGDFESHGREEVLKLMEMLKRTLGAKHIRIEIHHVDVQGDKVRMDTRIIIDAENHHLTLKSRMHTRKIDGRWYLHSLEID | 1.06 |
| HEHEEELHRVFKIFLELWTTGDEESMERLLDPNARWVELQGDKELTLIGRENARNRFKEIFDLAGFKYMHLDHEDIQGEKTRFEMTVEYDGRRTRMLLKIVVINGRVKVVKLEER | 1.32 |
| DEDEDLLRRFTELWNHIYLTGDERMLHHLVDPHARLDVNGKEMHGRELLIKWMVKEIRDLGADHYRIDIKHYHFVDGRAHVQSTLEVDIGDKRITFYIRLILLKVNGRWVVHTIYYH | 1.55 |
| DHMDEELKEFLRHFLEYFRTGDFDSLYKLIDPHVKSDINGQEIHGMDLQSFWHRHIRERLGVNHMHIEITEIRYINGRAEVYGKLEVNVNGKRFEHDVHMFNLKVDGKWILESLEIR | 2.28 |
| SEEHRDSKRAIDILVHSVRTGDEKSFESFLDPNVRIDVDGVELHGMEFATTIFREWRIHHVHIDRYRSQGDWIEVDTTMDVRYGDKTDTRKTELIILKVNGVWLLHSVIIR | 1.19 |
| REDEEITHKLLELLLTVIRTGDEQEMLNLLDPNTRHDVNGKHLHGRETAHRLFHEWSRHMRIHDLEIHDEKKIGNKVHIDGRLDGHIDGKREKIEVEFVIVKIDGRWVINSMTIK | 0.931 |
| KEEEWLAREWLRLWFEAVMTGDEHRLNHMLDPHVRTIVGDYEDVGRERSSELFLEIRLDHMELTSLDVQGDYAHLEIRVDGTIDGKRIETEMRVTLNIVDGRFRTVEHRIS | 0.755 |
| SDLEKLAEHTAKEIIHYWLTGDWKSLTELADPHVKLDIDINGRREHHHGWERVIEFFDRFRKRIDHHHIHIDSIDIQGDKVHIDGKLHVHQGDKDLTIKMTIIVIVVDGRIKSLRVIIL | 2.13 |
| DEEEKEMKEALHEQKRSHETGDERVLEELIDPNVRLDINGREHHGREEAIRLWHELGIDHFDIRDFRVVNGRAHIDGHMVINGQRVDVTLIVHKINGRWRQHHIVVR | 0.04 |
| SEDQEMSDHASSLLLHTMETGDFRLLHEFLDPNTRVSVNGRDVIGRDETVRHMIEHIKILGVSKVEARLHDVKLINGVAENDVEIDFNGRRIRVWWFVEKINGRWVITHMRVL | 1.47 |
| DEEEHIFQELIELWQTAMATGDEERTDRLLDPNAKIVINGVELHGMDEIKRLLEQMRLHVHDVKIDEIKFQGDYLHIDTTSDIIMRINGREHRIIVKTTVRMLKFDGRWWLHVISIR | 1.93 |
| SEEEEIAERFKKLMFEATHTGDWHTFMRLADPHVRVDINGKERHGREHWVEHERRLGIDHTDIRIRREREINGVMHIDSQLILHFNGVTLTLDHKLILKKVDGKWILHELKVD | -0.054 |
| DEDTKIIKEMLDEMVHATLTGNEDLLRELVDPEVRIRVGDKEKHGWEFLFHMLKHLRIDRSEITIHSIRVVNGRVEVDGELRIIFTIGDKHIEFSTRVHIILEKVDGRWRVQALLFH | 0.688 |
